Laboratory results as given in patent US20100222258A1 (KABUSHIKI KAISHA HAYASHIBARA SEIBUTSU KAGAKU KENKYUJO, published 2010).

Columns and labels:
[1] = target: T1, TNF-R1 (a protein having the amino acid sequence, Accession No. M58286 registered at GENBANK) (UniProt P19438 30-211, limits assumed); experiment: SPR (BIACORE 2000), receptor on sensor tip; grade 3 = 0.5 to 2 times that of recombinant TNF-α
T1 construct: also called TNF receptor having a molecular weight of 55 kilo daltons
T1 sequence (looked up): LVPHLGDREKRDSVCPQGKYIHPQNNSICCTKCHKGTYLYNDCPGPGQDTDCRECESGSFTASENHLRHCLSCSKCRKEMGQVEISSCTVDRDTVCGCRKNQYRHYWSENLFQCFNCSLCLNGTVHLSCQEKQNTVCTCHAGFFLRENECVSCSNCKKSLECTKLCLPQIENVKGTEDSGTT
Text: (§1) Using the above detector based on surface plasmon resonance effect again, the resulting clones binding to TNF-R1 (or TNF-R2) were subjected to the remaining sensor tip conjugated with TNF-R2 (or TNF-R1) to measure receptor binding affinity and select clones having a variation of receptor binding affinity. […] The resulting DNAs were digested with restrict enzymes NdeI and BamHI to obtain DNA fragments. The resulting DNA fragments were introduced into a plasmid vector containing T7 promoter region, T7 terminator region, ampicillin resistant gene region and ColE1/Ori region (product name “pET-3a”, manufactured by “Novagen®” (EMD Biosciences, Inc.)) at the position of the above restriction sites. The resulting plasmid was introduced into E. coli BL21DE3 strain to obtain a transformed E. coli for producing the TNF mutant proteins. The obtained transformed E. coli was cultured according to usual method and centrifuged to collect E. coli pellet. The resulting pellet was washed twice with TES buffer (pH 8.0) (20 mM Tris-HCl, 10 mM ethylene diamine tetraacetic acid and 0.5 M sodium chloride) and admixed with TES buffer (pH 8.0) containing 0.2 mg/ml lysozyme. The resulting suspension was sonicated according to usual manner, and centrifuged to collect a precipitate containing the produced TNF mutant protein. The resulting precipitate was treated three times in a manner of admixing with TES buffer containing 1 (w/w) % Triton X-100, removed from supernatant by centrifuging, admixed with 50 mM Tris-HCl (pH 7.0) containing 8 M guanidine hydrochloride and 50 mM dithiothreitol, with stirring for 16 hours at ambient temperature under shielded condition, and centrifuged to collect a supernatant. The resulting supernatant was gently admixed with 100 time volumes of a aqueous solution containing 1 M Tris, 0.9 (w/v) % sodium chloride, 0.4 M L-arginine chloride, 2.5 mM reduced glutathione, 0.5 mM oxidized glutathione and 0.05 (w/v) % Tween 20, and kept at 4° C. for 16 hours.

[2] = target: T2, TNF-R2 (a protein having the amino acid sequence, Accession No. M55994 registered at GENBANK) (UniProt P20333 23-257, limits assumed); experiment: as above
T2 construct: also called TNF receptor with 75 kilo daltons
T2 sequence (looked up): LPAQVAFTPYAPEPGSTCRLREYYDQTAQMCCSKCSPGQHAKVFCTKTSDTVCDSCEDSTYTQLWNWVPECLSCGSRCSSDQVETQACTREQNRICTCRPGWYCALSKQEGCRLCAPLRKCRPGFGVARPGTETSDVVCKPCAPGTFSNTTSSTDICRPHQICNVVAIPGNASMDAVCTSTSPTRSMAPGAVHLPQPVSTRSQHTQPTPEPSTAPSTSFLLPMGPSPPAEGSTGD
Text: as §1

[3] = target: T2, TNF-R2 (a protein having the amino acid …); experiment: SPR (BIACORE 2000), receptor on sensor tip; grade 2 = 0.5 to 0.1 time that of recombinant TNF-α
Text: as §1

[4] = target: T2, TNF-R2 (a protein having the amino acid …); experiment: SPR (BIACORE 2000), receptor on sensor tip; grade 0 = weakened to 0.001 or less of that of recombinant TNF-α
Text: as §1

[5] = target: T1, TNF-R1 (a protein having the amino acid …); experiment: SPR (BIACORE 2000), receptor on sensor tip; grade 2 = 0.5 to 0.1 time that of recombinant TNF-α
Text: as §1

[6] = target: T2, TNF-R2 (a protein having the amino acid …); experiment: SPR (BIACORE 2000), receptor on sensor tip; grade 1 = 0.001 to 0.1 time that of recombinant TNF-α
Text: as §1

[7] = target: T1, TNF-R1 (a protein having the amino acid …); experiment: SPR (BIACORE 2000), receptor on sensor tip; grade 4 = two times or more that of recombinant TNF-α
Text: as §1

B1: lysine-replaced human TNF (ligand)
chain: VRSSSRTPSDMPVAHVVANPQAEGQLQWLNRRANALLANGVELRDNQLVVPSEGLYLIYSQVLFSGQGCPSTHVLLTHTISRIAVSYQTPVNLLSAIRSPCQRETPEGAEANPWYEPIYLGGVFQLEPGDRLSAEINRPDYLDFAESGQVYFGIIAL
notes: Parent of all clones; also called Lysine-replaced TNF; lysine-replaced mutant
B1 was tested, and the “binding affinity relative to recombinant TNF-α” value [1] was 0.5 to 2 fold and the “binding affinity relative to recombinant TNF-α” value [2] was 0.5 to 2 fold.

B2: TNF mutant protein of clone No. 2 (ligand)
chain: VRSSSRTPSDMPVAHVVANPQAEGQLQWTNGYANALLANGVELRDNQLVVPSEGLYLIYSQVLFSGQGCPSTHVLLTHTISRIAVSYQTPVNLLSAIRSPCQRETPEGAEANPWYEPIYLGGVFQLEPGDRLSAEINRPDYLDFAESGQVYFGIIAL
notes: Mutant of lysine-replaced TNF, made in E. coli
For B2, the “binding affinity relative to recombinant TNF-α” value [1] was 0.5 to 2 fold and the “binding affinity relative to recombinant TNF-α” value [3] was 0.1 to 0.5 fold.

B3: TNF mutant protein of clone No. 4 (ligand)
chain: VRSSSRTPSDMPVAHVVANPQAEGQLQWKNAGANALLANGVELRDNQLVVPSEGLYLIYSQVLFSGQGCPSTHVLLTHTISRIAVSYQTPVNLLSAIRSPCQRETPEGAEANPWYEPIYLGGVFQLEPGDRLSAEINRPDYLDFASTGQVYFGIIAL
notes: as for B2
B3 was tested, and the “binding affinity relative to recombinant TNF-α” value [1] was 0.5 to 2 fold and the “binding affinity relative to recombinant TNF-α (grade)” value [4] was ≤ 0.001 times that of recombinant TNF-α.

B4: TNF mutant protein of clone No. 5 (ligand)
chain: VRSSSRTPSDMPVAHVVANPQAEGQLQWRNSHANALLANGVELRDNQLVVPSEGLYLIYSQVLFSGQGCPSTHVLLTHTISRIAVSYQTPVNLLSAIRSPCQRETPEGAEANPWYEPIYLGGVFQLEPGDRLSAEINRPDYLDFSGTGQVYFGIIAL
notes: as for B2
With B4 the “binding affinity relative to recombinant TNF-α” value [1] was 0.5 to 2 fold and the “binding affinity relative to recombinant TNF-α (grade)” value [4] was ≤ 0.001 times that of recombinant TNF-α.

B5: TNF mutant protein of clone No. 7 (ligand)
chain: VRSSSRTPSDMPVAHVVANPQAEGQLQWHNNTANALLANGVELRDNQLVVPSEGLYLIYSQVLFSGQGCPSTHVLLTHTISRIAVSYQTPVNLLSAIRSPCQRETPEGAEANPWYEPIYLGGVFQLEPGDRLSAEINRPDYLDFDSNGQVYFGIIAL
notes: as for B2
With B5 the “binding affinity relative to recombinant TNF-α” value [5] was 0.1 to 0.5 fold and the “binding affinity relative to recombinant TNF-α” value [6] was 0.001 to 0.1 fold.

B6: TNF mutant protein of clone No. 8 (ligand)
chain: VRSSSRTPSDMPVAHVVANPQAEGQLQWRNEHANALLANGVELRDNQLVVPSEGLYLIYSQVLFSGQGCPSTHVLLTHTISRIAVSYQTPVNLLSAIRSPCQRETPEGAEANPWYEPIYLGGVFQLEPGDRLSAEINRPDYLDFNNAGQVYFGIIAL
notes: as for B2
For B6, the “binding affinity relative to recombinant TNF-α” value [5] was 0.1 to 0.5 fold and the “binding affinity relative to recombinant TNF-α” value [6] was 0.001 to 0.1 fold.

B7: TNF mutant protein of clone No. 9 (ligand)
chain: VRSSSRTPSDMPVAHVVANPQAEGQLQWSNPMANALLANGVELRDNQLVVPSEGLYLIYSQVLFSGQGCPSTHVLLTHTISRIAVSYQTPVNLLSAIRSPCQRETPEGAEANPWYEPIYLGGVFQLEPGDRLSAEINRPDYLDFANPGQVYFGIIAL
notes: as for B2
B7 was tested, and the “binding affinity relative to recombinant TNF-α” value [5] was 0.1 to 0.5 fold and the “binding affinity relative to recombinant TNF-α” value [6] was 0.001 to 0.1 fold.

B8: TNF mutant protein of clone No. 14 (ligand)
chain: VRSSSRTPSDMPVAHVVANPQAEGQLQWLNRRANALLANGVELRDNQLVVPSEGLYLIYSQVLFSGQGCPSTHVLLTHTISRIAVSYQTPVNLLSAIRSPCQRETPEGAEANPWYEPIYLGGVFQLEPGDRLSAEINRPDYLDFANDGQVYFGIIAL
notes: as for B2
B8 was tested, and the “binding affinity relative to recombinant TNF-α” value [2] was 0.5 to 2 fold and the “binding affinity relative to recombinant TNF-α” value [5] was 0.1 to 0.5 fold.

B9: TNF mutant protein of clone No. 15 (ligand)
chain: VRSSSRTPSDMPVAHVVANPQAEGQLQWLNRRANALLANGVELRDNQLVVPSEGLYLIYSQVLFSGQGCPSTHVLLTHTISRITNHYSNPVNLLSAIRSPCQRETPEGAEANPWYEPIYLGGVFQLEPGDRLSAEINRPDYLDFAESGQVYFGIIAL
For B9, the “binding affinity relative to recombinant TNF-α” value [5] was 0.1 to 0.5 fold and the “binding affinity relative to recombinant TNF-α” value [6] was 0.001 to 0.1 fold.

B10: TNF mutant protein of clone No. 16 (ligand)
chain: VRSSSRTPSDMPVAHVVANPQAEGQLQWLNRRANALLANGVELRDNQLVVPSEGLYLIYSQVLFSGQGCPSTHVLLTHTISRISSTYPDPVNLLSAIRSPCQRETPEGAEANPWYEPIYLGGVFQLEPGDRLSAEINRPDYLDFAESGQVYFGIIAL
notes: as for B2
With B10 the “binding affinity relative to recombinant TNF-α” value [3] was 0.1 to 0.5 fold and the “binding affinity relative to recombinant TNF-α” value [7] was no less than 2 fold.

B11: TNF mutant protein of clone No. 20 (ligand)
chain: VRSSSRTPSDMPVAHVVANPQAEGQLQWLNRRANALLANGVELRDNQLVVPSEGLYLIYSQVLFSGQGCPSTHVLLTHTISRISSAYASPVNLLSAIRSPCQRETPEGAEANPWYEPIYLGGVFQLEPGDRLSAEINRPDYLDFAESGQVYFGIIAL
notes: as for B2
With B11 the “binding affinity relative to recombinant TNF-α” value [1] was 0.5 to 2 fold and the “binding affinity relative to recombinant TNF-α” value [3] was 0.1 to 0.5 fold.

B12: TNF mutant protein of clone No. 27 (ligand)
chain: VRSSSRTPSDMPVAHVVANPQAEGQLQWLNRRANALLANGVELRDNQLVVPSEGLYLIYSQVLFSGQGCPSTHVLLTHTISRITPAYPRPVNLLSAIRSPCQRETPEGAEANPWYEPIYLGGVFQLEPGDRLSAEINRPDYLDFAESGQVYFGIIAL
notes: as for B2
In the case of B12, the “binding affinity relative to recombinant TNF-α” value [1] is reported as 0.5 to 2 fold and the “binding affinity relative to recombinant TNF-α” value [3] is reported as 0.1 to 0.5 fold.

B13: TNF mutant protein of clone No. 30 (ligand)
chain: VRSSSRTPSDMPVAHVVANPQAEGQLQWLNRRANALLANGVELRDNQLVVPSEGLYLIYSQVLFSGQGCPSTHVLLTHTISRITPGYPSPVNLLSAIRSPCQRETPEGAEANPWYEPIYLGGVFQLEPGDRLSAEINRPDYLDFAESGQVYFGIIAL
notes: as for B2
In the case of B13, the “binding affinity relative to recombinant TNF-α” value [1] is reported as 0.5 to 2 fold and the “binding affinity relative to recombinant TNF-α” value [3] is reported as 0.1 to 0.5 fold.

B14: TNF mutant protein of clone No. 31 (ligand)
chain: VRSSSRTPSDMPVAHVVANPQAEGQLQWLNRRANALLANGVELRDNQLVVPSEGLYLIYSQVLFSGQGCPSTHVLLTHTISRISKTYSHPVNLLSAIRSPCQRETPEGAEANPWYEPIYLGGVFQLEPGDRLSAEINRPDYLDFAESGQVYFGIIAL
notes: as for B2
For B14, the “binding affinity relative to recombinant TNF-α” value [2] was 0.5 to 2 fold and the “binding affinity relative to recombinant TNF-α” value [7] was no less than 2 fold.

B15: TNF mutant protein of clone No. 32 (ligand)
chain: VRSSSRTPSDMPVAHVVANPQAEGQLQWLNRRANALLANGVELRDNQLVVPSEGLYLIYSQVLFSGQGCPSTHVLLTHTISRITDRYSSPVNLLSAIRSPCQRETPEGAEANPWYEPIYLGGVFQLEPGDRLSAEINRPDYLDFAESGQVYFGIIAL
notes: as for B2
With B15 the “binding affinity relative to recombinant TNF-α” value [3] was 0.1 to 0.5 fold and the “binding affinity relative to recombinant TNF-α” value [7] was no less than 2 fold.

B16: TNF mutant protein of clone No. 34 (ligand)
chain: VRSSSRTPSDMPVAHVVANPQAEGQLQWLNRRANALLANGVELRDNQLVVPSEGLYLIYSQVLFSGQGCPSTHVLLTHTISRISADYPHPVNLLSAIRSPCQRETPEGAEANPWYEPIYLGGVFQLEPGDRLSAEINRPDYLDFAESGQVYFGIIAL
notes: as for B2
With B16 the “binding affinity relative to recombinant TNF-α” value [1] was 0.5 to 2 fold and the “binding affinity relative to recombinant TNF-α” value [3] was 0.1 to 0.5 fold.
